Experimental data: article PMC5515730 (Nature Structural & Molecular Biology, 2016)

Biological target: the molecule itself
Assay: cryo-EM structure

B1: HCoV-NL63 spike (S) glycoprotein ectodomain fused to a GCN4 trimerization motif (domain or fragment)
chain: FFTCNSNANLSMLQLGVPDNSSTIVTGLLPTHWFCANQSTSVYSANGFFYIDVGNHRSAFALHTGYYDANQYYIYVTNEIGLNASVTLKICKFSRNTTFDFLSNASSSFDCIVNLLFTEQLGAPLGITISGETVRLHLYNVTRTFYVPAAYKLTKLSVKCYFNYSCVFSVVNATVTVNVTTHNGRVVNYTVCDDCNGYTDNIFSVQQDGRIPNGFPFNNWFLLTNGSTLVDGVSRLYQPLRLTCLWPVPGLKSSTGFVYFNATGSDVNCNGYQHNSVVDVMRYNLNFSANSLDNLKSGVIVFKTLQYDVLFYCSNSSSGVLDTTIPFGPSSQPYYCFINSTINTTHVSTFVGILPPTVREIVVARTGQFYINGFKYFDLGFIEAVNFNVTTASATDFWTVAFATFVDVLVNVSATNIQNLLYCDSPFEKLQCEHLQFGLQDGFYSANFLDDNVLPETYVALPIYYQHTDINFTATASFGGSCYVCKPHQVNISLNGNTSVCVRTSHFSIRYIYNRVKSGSPGDSSWHIYLKSGTCPFSFSKLNNFQKFKTICFSTVEVPGSCNFPLEATWHYTSYTIVGALYVTWSEGNSITGVPYPVSGIREFSNLVLNNCTKYNIYDYVGTGIIRSSNQSLAGGITYVSNSGNLLGFKNVSTGNIFIVTPCNQPDQVAVYQQSIIGAMTAVNESRYGLQNLLQLPNFYYVSNGGNNCTTAVMTYSNFGICADGSLIPVRPRNSSDNGISAIITANLSIPSNWTTSVQVEYLQITSTPIVVDCATYVCNGNPRCKNLLKQYTSACKTIEDALRLSAHLETNDVSSMLTFDSNAFSLANVTSFGDYNLSSVLPQRNIRSSRIAGRSALEDLLFSKVVTSGLGTVDVDYKSCTKGLSIADLACAQYYNGIMVLPGVADAERMAMYTGSLIGGMVLGGLTSAAAIPFSLALQARLNYVALQTDVLQENQKILAASFNKAINNIVASFSSVNDAITQTAEAIHTVTIALNKIQDVVNQQGSALNHLTSQLRHNFQAISNSIQAIYDRLDSIQADQQVDRLITGRLAALNAFVSQVLNKYTEVRGSRRLAQQKINECVKSQSNRYGFCGNGTHIFSIVNSAPDGLLFLHTVLLPTDYKNVKAWSGICVDGIYGYVLRQPNLVLYSDNGVFRVTSRVMFQPRLPVLSDFVQIYNCNVTFVNISRVELHTVIPDYVDVNKTLQEFAQNLPKYVKPNFDLTPFNLTYLNLSSELKQLEAKTASLFQTTVELQGLIDQINSTYVDLKLLNRFENLIKRMKQIEDKIEEIESKQKKIENEIARIKKIKLVPRGSLE
modifications: N-linked glycans (glycosylation shown at 34 of 39 NXS/T sequons; paucimannosidic or high-mannose)
stoichiometry N: 3
